Experimental data: patent US20230331821A1 (VIR BIOTECHNOLOGY, published 2023)
Like-named read-outs stand apart in the source and are kept apart here.

Experiments:
[1] = molecular target: SARS-CoV-1 Spike (S) protein, strain SARS, on ExpiCHO cells (SARS-CoV (SARS-CoV-1), strain SARS, UniProt P59594 14-1255); test: flow cytometry, ExpiCHO cells expressing SARS-CoV-1 S; % positive cells
[2] = molecular target: T1, SARS-CoV-2 Spike (S) protein, strain BetaCoV/Wuhan-Hu-1/2019, full length (SARS-CoV-2 Wuhan-Hu-1, UniProt P0DTC2 14-1273)
[3] = molecular target: T2, His-tagged RBD of SARS-CoV-1 (SARS-CoV-1, UniProt P59594 306-527)
[4] = molecular target: T3, His-tagged RBD of SARS-CoV-2 (SARS-CoV-2 BetaCoV/Wuhan-Hu-1/2019, UniProt P0DTC2 331-550)
[5] = molecular target: T1, SARS-CoV-2 Spike (S) protein, strain …; test: cell-based or functional assay
[6] = molecular target: T1, SARS-CoV-2 Spike (S) protein, strain …; test: flow cytometry, ExpiCHO cells expressing SARS-CoV-2 S; % positive cells
[7] = molecular target: T4, SARS-CoV-1 RBD (Sino Biological) (SARS-CoV-1, UniProt P59594 306-527); test: ELISA, antigen coated on the plate, OD 405 nm
[8] = molecular target: T4, SARS-CoV-1 RBD (Sino Biological); test: ELISA, antigen coated on the plate, OD 405 nm; remark: listed apart in the source
[9] = molecular target: T2, His-tagged RBD of SARS-CoV-1; remark: listed apart in the source
[10] = molecular target: T3, His-tagged RBD of SARS-CoV-2; remark: listed apart in the source
[11] = molecular target: T1, SARS-CoV-2 Spike (S) protein, strain …; test: cell-based or functional assay; remark: listed apart in the source
[12] = molecular target: T4, SARS-CoV-1 RBD (Sino Biological); test: BLI (Octet), antibody on protein A sensors, RBD in solution, global fit
[13] = molecular target: SARS-CoV-2 RBD (produced in house in Expi-CHO cells; residues 331-550 of spike) (SARS-CoV-2 BetaCoV/Wuhan-Hu-1/2019, UniProt P0DTC2 331-550); test: as above

B1: S315 recombinant IgG1 (antibody, V domains shown)
VH: EVQLVESGGGLVQPGGSLRLSCAASGFTFSNYWMTWVRQAPGKGLEWVANIKQDGSEKYYVDSVKGRFTISRDNAKNSLYLQMNSLRAEDTAVYYCARDLWWNDQAHYYGMDVWGQGTTVTVSS
VL: SYELTQPPSVSVSPGQTARITCSGDAFPNQYAYWYQQKPGQAPVMLIYKDSERPSGIPERFFGSSSGTTVTLTIRGVQAEDEADYYCQSADSSGTVFGGGTKLTVL
EC50 (read off the curve) [1]: ~0.007 µg/mL
EC50 [2]: 0.343 µg/mL
Kd [3]: < 0.001 nM
Kd [4]: 0.811 nM
IC50, neutralization of SARS-CoV-2pp on DBT-ACE2 cells [5]: 25.1 µg/mL
EC50 (read off the curve) [6]: ~0.3 µg/mL

B2: S306-rIgG1-LS (antibody, V domains shown)
VH: QVQLVQSGAEVKKPGASVKVSCKASTYTFTSFGISWVRQAPGQGLEWMGWITTYSGDTNYAQKFQGRVTMTTDTSTNTAYMELRSLRSDDTAVYYCASDYFDSSGYYHSFDYWGQGTLVTVSS
VL: EIVLTQSPDTLSLSPGERATLSCRASQSVSSYLAWYQQRPGQAPRLLIYDASKRATGIPARFSGSGSGTDFTLTISSLEPEDFAVYYCQQRSNWPPGCSFGQGTKVEIK
binding result [7]: no binding (tested: 5 µg/ml)

B3: S310-rIgG1-LS (antibody, V domains shown)
VH: QVQLVQSGAELKKPGSSVKVSCKASGGTFNSYSFNWVRQAPGQGLEWLGGIIPVLGTSNYAQKFQGRVAVTADEFTTTAYMELSSLRSEDTAVYYCATRTYDSSGYRPYYYGLDVWGQGTPVTVSS
VL: QSALTQPASVSGSPGQSITISCTGTSSDVGSYNLVSWYQQRPGKAPELMIYEVTKRPSGLSNRFSGSKSGNTASLTISGLQAEDEADYYCCSYAGSDTVIFGGGTKVTVL
binding result [8]: no binding (tested: 5 µg/ml)

B4: S304 rIgG1 (antibody, V domains shown)
VH: EVQLVESGGGLVQPGGSLRLSCAASGFTFSSYDMHWVRQTTGKGLEWVSTIGTAGDTYYPDSVKGRFTISREDAKNSLYLQMNSLRAGDTAVYYCARGDSSGYYYYFDYWGQGTLLTVSS
VL: DIQMTQSPSSLSAAVGDRVTITCRASQSIGSYLNWYQQKPGKAPKLLIYAASSLQSGVPSRFSGSGSGTDFTLTISSLQPEDFAIYYCQQSYVSPTYTFGPGTKVDIK
Kd [9]: 0.869 nM
Kd [10]: 4.58 nM
EC50 (read off the curve) [1]: ~0.01 µg/mL
EC50 [2]: 0.142 µg/mL
IC50, neutralization of SARS-CoV-2pp on DBT-ACE2 cells [11]: ~16.9 µg/mL
EC50 (read off the curve) [6]: ~0.1 µg/mL
Kd [12]: 0.869 nM
Kd [13]: 4.58 nM
